From paper PMC2819989

Molecular target: RhiG-C-His (Bacillus subtilis ATCC6633)
Test: SEC

stoichiometry N: 2
Substance: RhiG-C-His (enzyme)
